Results taken from US20210205413A1 (Nektar Therapeutics, priority 2018, published 2021).

Columns and labels:
[1] = Phase I single ascending subcutaneous dose study in healthy volunteers: pharmacokinetics; type: in vivo, human; conditions: for AUC0-14 d / Cmax / tmax: Single Dose Study
Protocol: A double-blind, randomized, placebo-controlled study is conducted to evaluate the safety, tolerability, pharmacokinetics, and pharmacodynamics of single ascending low sub-cutaneous doses of an RUR20kD-IL-2 composition (RUR20kD-IL-2) in healthy volunteers. […] Twelve subjects are randomized to each dose cohort, nine of whom received a single subcutaneous dose of RUR20kD-IL-2 while three received placebo. […] The drug product is supplied in single-use glass vials and stored at 2-8° C. […] Placebo is a commercially available 0.9% sodium chloride solution. A starting dose of 0.3 μg/kg is chosen using the minimally anticipated biological effect level (MABEL) approach and is supported by the no observed adverse effect level (NOAEL) in the most sensitive species from nonclinical toxicology studies.
The primary objective of the study is to evaluate the safety and tolerability of RUR20kD-IL-2 administered as a single subcutaneous dose. […] In a first phase of the study, immune markers are tested pre-dose up to 20 hours post-dose. Specifically, Tregs, CD4^+-T cells, CD8^+-T cells, natural killer (NK) cells, cytokines, soluble CD25, and RNA are tested in RUR20kD-IL-2- and placebo-receiving cohorts. In subsequent phases, the same immune markers are also tested at 4-, 5-, 6-, 7-, 8-, 10-, 12-, 15-, 18-, 20-, 25-, 30-, 40, and 50-days post-dose.

Tregs in human PBMC = experiment: pSTAT5 induction in lymphocyte populations of human PBMC (flow cytometry, CyToF); type: cell-based; conditions: in vitro
Protocol: Impaired IL-2 production and regulatory T cell dysfunctions have been implicated as an immunological mechanism in multiple autoimmune diseases. While low-dose IL-2 can be used to stimulate Tregs for clinical benefit, poor pharmacokinetics necessitates daily delivery, adverse events are dose-limiting, and Treg increases are modest and short-lived. […] The affinity to the IL-2 receptor is assessed by surface plasmon resonance. Activity in human PBMC can be measured by pSTAT5 induction in multiple lymphocyte populations using flow cytometry and time-of-flight mass cytometry (CyToF). In vivo activity after subcutaneous administration in C57BL/6 mice or cynomolgus monkey is measured by changes in lymphocyte numbers and activation by flow cytometry. Ex vivo Treg function is determined by the inhibition of Tcon proliferation by isolated splenic Treg. Efficacy is assessed in a model of systemic lupus erythematosus (SLE) using MRL/MpJ-Faslpr mice. […] In mice, a single administration leads to sustained Treg mobilization for 7-10 days in blood and spleen without Tcon activation, an effect concomitant with induction of Treg activation markers and increased ex vivo suppressive capacity. […] Finally, an RUR20kD-IL-2 composition is efficacious in mouse models of SLE.

Tcon proliferation = experiment: In vitro Treg suppression assay (splenic Tregs of treated mice co-cultured with Tcon); type: cell-based, C57BL/6 mice
Protocol: The objective of this study is to assess the inhibitory function of regulatory T cells. […] Treg and Tcon are co-cultured at a range of ratios from 1:2 to 1:512 for three days. Cellular proliferation is evaluated by ^3H-thymidine incorporation over the final 16 hours of the assay, and the % of proliferating cells relative to plate controls is calculated.
Single-cell isolations are prepared for each spleen, and the resultant splenocyte mixtures are pooled for each dose group at each timepoint. A portion of the pooled sample equivalent to one spleen is aliquoted for immune cell profiling. The remaining splenocyte preparation is utilized for isolation of regulatory T cells (Tregs). […]
In vitro suppression assays are carried out in RPMI 1640 medium supplemented with 10% fetal bovine serum, 2 mM L-glutamine, 1 mM sodium pyruvate, 0.5 μM β-mercaptoethanol, and 1× antibiotic/antimycotic (100 units/mL penicillin, 100 μg/mL streptomycin and 250 ng/mL amphotericin B). […] The suppressive capacity of Tregs is assessed by the addition of Tregs to Tcon at different ratios (Treg:Tcon ratios of […] to 1:512). […] After washing cells free from unincorporated [3H]-thymidine, thymidine uptake is measured as counts-per-minute (CPM) using a microplate scintillation counter (TopCount NXT, Perkin Elmer). […]

(1,3-bis(methoxypoly(ethylene glycol)10kDcarbamoyl)-2-propanoxy)-4-butanamide)interleukin-2) [RUR20kD-IL-2]
AUC0-14 d ([1]; 3.0 μg/kg, Median (n = 9)): 214 ng·days/mL
Cmax ([1]; 3.0 μg/kg, Median (n = 9)): 21 ng/mL
tmax ([1]; 3.0 μg/kg, Median (n = 9)): 84 h
AUC0-14 d ([1]; 3.0 μg/kg, max): 388 ng·days/mL
Cmax ([1]; 3.0 μg/kg, max): 41 ng/mL
tmax ([1]; 3.0 μg/kg, max): 336 h
AUC0-14 d ([1]; 3.0 μg/kg, min): 143 ng·days/mL
Cmax ([1]; 3.0 μg/kg, min): 13 ng/mL
tmax ([1]; 3.0 μg/kg, min): 31.2 h
Cmax ([1]; 6.0 μg/kg, Median (n = 9)): 46 ng/mL
tmax ([1]; 6.0 μg/kg, Median (n = 9)): 120 h
AUC0-14 d ([1]; 6.0 μg/kg, max): 705 ng·days/mL
Cmax ([1]; 6.0 μg/kg, max): 70 ng/mL
tmax ([1]; 6.0 μg/kg, max): 220 h
AUC0-14 d ([1]; 6.0 μg/kg, min): 73 ng·days/mL
Cmax ([1]; 6.0 μg/kg, min): 13 ng/mL
tmax ([1]; 6.0 μg/kg, min): 48 h
Half-life ([1]; healthy volunteers, single SC dose, decline after approximately 2 weeks post-dose, preliminary): 190 to 220 h
time of maximum concentrations post-dose ([1]; healthy volunteers, single SC dose, preliminary PK analysis): 4 to 6 days
STAT5 phosphorylation in Tregs relative to other lymphocyte subsets (Tregs in human PBMC): increased STAT5 phosphorylation relative to other lymphocyte subsets
duration of increased Treg suppressive activity (Tcon proliferation; Treg:Tcon ratio 1:2): maintained for four days
suppressive capacity of Tregs isolated after administration (Tcon proliferation; Tregs isolated 1 and 4 days post dose, vs vehicle): greatly increased suppressive capacity
